This is an account of results in paper PMC12064060 (mAbs, 2025).

The target of this test is Nb4 × 3 (trimeric Nb4, three VHH domains in tandem) (dromedary). In words: ELISA.

B1: SARS-CoV-1 RBD-Fc (Fc fusion)
chain: not shown
Consider B1, for which the binding result is given as “binds”.
